Source: publication doi:10.1101/2021.02.05.429969 (bioRxiv, 2021)
Positions count from the first letter of the chain named. Names and notes keep the numbering of the source.

B1: CagFbFP-Q148N (domain or fragment)
chain: MASGMIVTDAGADQPIVFVNRAFSTITGYAPNEVLGRNARFLQGPQTDAATVARLREAIAAARPIQERILNYRKDGQPFWNQLSISPVRDETGNVVAFVGVNTDVTA
B2: CagFbFP-Q148D (domain or fragment)
chain: B1 chain with N102D
B3: CagFbFP-Q148E (domain or fragment)
chain: B1 chain with N102E
B4: CagFbFP-Q148R (domain or fragment)
chain: B1 chain with N102R
B5: CagFbFP-Q148H (domain or fragment)
chain: B1 chain with N102H
B6: CagFbFP-Q148K (domain or fragment)
chain: B1 chain with N102K

Target: the molecule itself
Test: crystal structure

Binding result, binds:
B1
B2
B3
B4
B5
B6
